The chains are these.
B1: Retinoic acid receptor RXR-alpha, residues 132 to 208; numbered along this chain, P19793 (parent)
chain: KHICAICGDRSSGKHYGVYSCEGCKGFFKRTVRKDLTYTCRDNKDCLIDKRQRNRCQYCRYQKCLAMGMKREAVQEE

± gives the uncertainty stated by the source.

Variants of B1 are the subject of this data set. The data set can be described thus: abundance fitness (aPCA) (normalised: wild type 0, dead -1); higher = more abundant; growth selection in yeast, the domain comes from the species named. The conditions noted are these: Homo sapiens.
For KHICAICGDRSSGKHYGVYSCEGCKGFFKRTVRKDLTYTCRDNKDCLIDKRQRNRCQCCRYQKCLAMGMKREAVQEE, the abundance fitness was -0.066 ± 0.062.
The result for KHICAICGDRSSGKHYGVYSCEGCKGFFKRTVRKDLTYTCRDNKDCLIDKRQRNRCQECRYQKCLAMGMKREAVQEE reads 0.043 ± 0.045.
The result for KHICAICGDRSSGKHYGVYSCEGCKGFFKRTVRKDLTYTCRDNKDCLIDKRQRNRCQACRYQKCLAMGMKREAVQEE reads -0.007 ± 0.035.
On to KHICAICGDRSSGKHYGVYSCEGCKGFFKRTVRKDLTYTCRDNKDCLIDKRQRNRCQNCRYQKCLAMGMKREAVQEE, for which the abundance fitness was -0.087 ± 0.08.
Regarding KHICAICGDRSSGKHYGVYSCEGCKGFFKRTVRKDLTYTCRDNKDCLIDKRQRNRCQDCRYQKCLAMGMKREAVQEE, the abundance fitness amounted to 0.045 ± 0.05.
With KHICAICGDRSSGKHYGVYSCEGCKGFFKRTVRKDLTYTCRDNKDCLIDKRQRNRCQICRYQKCLAMGMKREAVQEE, the abundance fitness was -0.551 ± 0.12.
The figure for KHICAICGDRSSGKHYGVYSCEGCKGFFKRTVRKDLTYTCRDNKDCLIDKRQRNRCQFCRYQKCLAMGMKREAVQEE is -0.02 ± 0.062; for KHICAICGDRSSGKHYGVYSCEGCKGFFKRTVRKDLTYTCRDNKDCLIDKRQRNRCQGCRYQKCLAMGMKREAVQEE it is -0.028 ± 0.036.
For KHICAICGDRSSGKHYGVYSCEGCKGFFKRTVRKDLTYTCRDNKDCLIDKRQRNRCQHCRYQKCLAMGMKREAVQEE, the abundance fitness came out at 0.09 ± 0.073.
The figure for KHICAICGDRSSGKHYGVYSCEGCKGFFKRTVRKDLTYTCRDNKDCLIDKRQRNRCQTCRYQKCLAMGMKREAVQEE is -0.328 ± 0.064; for KHICAICGDRSSGKHYGVYSCEGCKGFFKRTVRKDLTYTCRDNKDCLIDKRQRNRCQRCRYQKCLAMGMKREAVQEE it is -0.032 ± 0.033.
Regarding KHICAICGDRSSGKHYGVYSCEGCKGFFKRTVRKDLTYTCRDNKDCLIDKRQRNRCQMCRYQKCLAMGMKREAVQEE, the abundance fitness was -0.062 ± 0.045.
The figure for KHICAICGDRSSGKHYGVYSCEGCKGFFKRTVRKDLTYTCRDNKDCLIDKRQRNRCQKCRYQKCLAMGMKREAVQEE is 0.024 ± 0.05; for KHICAICGDRSSGKHYGVYSCEGCKGFFKRTVRKDLTYTCRDNKDCLIDKRQRNRCQSCRYQKCLAMGMKREAVQEE it is 0 ± 0.037; for KHICAICGDRSSGKHYGVYSCEGCKGFFKRTVRKDLTYTCRDNKDCLIDKRQRHRCQYCRYQKCLAMGMKREAVQEE it is 0.117 ± 0.12.
For KHICAICGDRSSGKHYGVYSCEGCKGFFKRTVRKDLTYTCRDNKDCLIDKRQRSRCQYCRYQKCLAMGMKREAVQEE, the abundance fitness was -0.167 ± 0.2.
The figure for KHICAICGDRSSGKHYGVYSCEGCKGFFKRTVRKDLTYTCRDNKDCLIDKRQRYRCQYCRYQKCLAMGMKREAVQEE is -0.061 ± 0.44.
The figure for KHICAICGDRSSGKHYGVYSCEGCKGFFKRTVRKDLTYTCRDNKDCLIDKRQRDRCQYCRYQKCLAMGMKREAVQEE is -0.128 ± 0.25.
The figure for KHICAICGDRSSGKHYGVYSCEGCKGFFKRTVRKDLTYTCRDNKDCLIDKRQRNRYQYCRYQKCLAMGMKREAVQEE is -0.431 ± 0.19; for KHICAICGDRSSGKHYGVYSCEGCKGFFKRTVRKDLTYTCRDNKDCLIDKRQRNRSQYCRYQKCLAMGMKREAVQEE it is -0.293 ± 0.38.
Turning to KHICAICGDRSSGKHYGVYSCEGCKGFFKRTVRKDLTYTCRDNKDCLIDKRQRNRCWYCRYQKCLAMGMKREAVQEE, the abundance fitness was -0.026 ± 0.036.
Regarding KHICAICGDRSSGKHYGVYSCEGCKGFFKRTVRKDLTYTCRDNKDCLIDKRQRNRCGYCRYQKCLAMGMKREAVQEE, the abundance fitness came to 0.03 ± 0.03.
The result for KHICAICGDRSSGKHYGVYSCEGCKGFFKRTVRKDLTYTCRDNKDCLIDKRQRNRCEYCRYQKCLAMGMKREAVQEE reads -0.045 ± 0.042.
In the case of KHICAICGDRSSGKHYGVYSCEGCKGFFKRTVRKDLTYTCRDNKDCLIDKRQRNRCCYCRYQKCLAMGMKREAVQEE, the abundance fitness is -0.037 ± 0.048.
The result for KHICAICGDRSSGKHYGVYSCEGCKGFFKRTVRKDLTYTCRDNKDCLIDKRQRNRCNYCRYQKCLAMGMKREAVQEE reads -0.052 ± 0.069; that for KHICAICGDRSSGKHYGVYSCEGCKGFFKRTVRKDLTYTCRDNKDCLIDKRQRNRCLYCRYQKCLAMGMKREAVQEE, -0.016 ± 0.036.
Regarding KHICAICGDRSSGKHYGVYSCEGCKGFFKRTVRKDLTYTCRDNKDCLIDKRQRNRCRYCRYQKCLAMGMKREAVQEE, the abundance fitness worked out at 0.003 ± 0.031.
Turning to KHICAICGDRSSGKHYGVYSCEGCKGFFKRTVRKDLTYTCRDNKDCLIDKRQRNRCTYCRYQKCLAMGMKREAVQEE, the abundance fitness is -0.065 ± 0.044.
Take KHICAICGDRSSGKHYGVYSCEGCKGFFKRTVRKDLTYTCRDNKDCLIDKRQRNRCYYCRYQKCLAMGMKREAVQEE: the abundance fitness was -0.065 ± 0.065.
In the case of KHICAICGDRSSGKHYGVYSCEGCKGFFKRTVRKDLTYTCRDNKDCLIDKRQRNRCPYCRYQKCLAMGMKREAVQEE, the abundance fitness was 0.032 ± 0.049.
KHICAICGDRSSGKHYGVYSCEGCKGFFKRTVRKDLTYTCRDNKDCLIDKRQRNRCIYCRYQKCLAMGMKREAVQEE: the abundance fitness was -0.167 ± 0.072.
The result for KHICAICGDRSSGKHYGVYSCEGCKGFFKRTVRKDLTYTCRDNKDCLIDKRQRNRCDYCRYQKCLAMGMKREAVQEE reads 0.05 ± 0.057; that for KHICAICGDRSSGKHYGVYSCEGCKGFFKRTVRKDLTYTCRDNKDCLIDKRQRNRCVYCRYQKCLAMGMKREAVQEE, -0.04 ± 0.034; that for KHICAICGDRSSGKHYGVYSCEGCKGFFKRTVRKDLTYTCRDNKDCLIDKRQRNRCKYCRYQKCLAMGMKREAVQEE, -0.113 ± 0.043.
The figure for KHICAICGDRSSGKHYGVYSCEGCKGFFKRTVRKDLTYTCRDNKDCLIDWRQRNRCQYCRYQKCLAMGMKREAVQEE is -0.107 ± 0.047.
The figure for KHICAICGDRSSGKHYGVYSCEGCKGFFKRTVRKDLTYTCRDNKDCLIDYRQRNRCQYCRYQKCLAMGMKREAVQEE is -0.092 ± 0.078.

These data come from the Human Domainome abundance scans (Beltran et al. 2025).
